Results on five compounds are retold here after patent publication US20210087250A1, “PHARMACEUTICAL COMPOSITIONS FOR THE TRANSMUCOSAL DELIVERY OF THERAPEUTIC PEPTIDES AND PROTEINS” (CYPRUMED GMBH, priority 2018, published 2021).

Data set [1] concerns human nasal cell line RPMI 2650. The experiment in a line: Permeation of semaglutide through human nasal cells. In kind it is in vitro ADME. The conditions noted are these: 0.5 mg/ml semaglutide in KRB with 5% arginine HCl versus KRB only. The protocol: All permeation studies were performed with RPMI 2650 models after 3 weeks of cultivation. Furthermore, the whole equipment was pre-warmed to 37° C. All steps were performed at 37° C. Prior to permeation, TEER values were measured using EVOM® combined with Endohm® Chamber from World Precision Instruments (WPI, Sarasota, Fla., US).
RPMI models were incubated for 60 min in KRB. Meanwhile sample solution containing excipients and active pharmaceutical ingredients were prepared. Subsequent to the incubation period, TEER values were determined again.
Before permeation, the KRB was removed from both sides of the RPMI models and 1200 μL KRB as acceptor volume were added. Then, 200 μL of the formulations (containing 0.5 mg/ml of Semaglutide each; reference formulation in KRB only, sample formulation in KRB containing 5% of arginine HCl) were applied to the apical surface of each RPMI model. With this step the permeation time was started. After two hours of exposition the acceptor was entirely removed, transferred to Eppendorf tubes and replaced by 1200 μL pre-warmed KRB. Four hours after starting the experiment the total amount of the acceptor was withdrawn again. During permeation the cell culture plates were shaken horizontally with 200 U/min at 37° C.

For another data set, the system named is RPMI 2650 cells. As to the kind of experiment: CellTiter 96 AQueous One Solution cell proliferation cytotoxicity assay (MTS). In kind it is cell-based, human. Particulars: 2.5% and 5.0% (m/V) in KRB, up to 120 min. The protocol:
CellTiter 96® AQueous One Solution Cell proliferation Assay from Promega (Mannheim, Germany) is a colorimetric method for determining the number of viable cells in a cytotoxicity assay. The MTS tetrazolium compound is bioreduced by viable cells in a colored formazan product. The quantity of formazan is directly proportional to the number of living cells and can be measured by absorbance at 490 nm. This assay was performed to determinate cytotoxic effects of Arginine HCl in the concentrations of 2.5% and 5.0% (m/V) on RPMI 2650 cells.
RPMI 2650 cells were seeded onto a 96-well tissue culture test plate at a density of 60,000 cells per well for 24 h. Arginine HCl was dissolved in KRB. Medium was removed from the cells and replaced by 100 μL excipient solutions per well. Cells were incubated with excipient solutions for 0 min, 15 min, 30 min, 60 min and 120 min. Furthermore, cells were incubated with KRB, 1.0% Triton-X solution (V/V) for the same incubation periods as negative and positive controls, respectively. Bacitracin (BAC) served as reference.
The CellTiter 96® AQueous One Solution Cell proliferation Assay was carried out following the manufacturer's protocol. […]
After the incubation period the samples were analyzed immediately. Absorbance was recorded at 490 nm and measured by using a microplate reader Infinite® M Plex (Tecan, Switzerland).

The next data set deals with MDCK cells. As to the kind of experiment: Transepithelial electrical resistance (TEER) measurement. The format is cell-based. Particulars: 2.5% and 5%. On the procedure:
The cellZscope from nanoAnalytics (Munster, Germany) was used for continuous evaluation of TEER as a surrogate parameter of tight junction functionality. MDCK cells were grown on 1.12 cm^2, 1.0 μm transparent filter inserts (ThinCerts™, Greiner Bio-One, Frickenhausen, Germany) with a seeding density of 100,000 cells per well. The medium was changed at cultivation days 3, 4 and 5. TEER measurements were performed on day 5 when cells reached a resistance of approximately 3,500 Ω·cm^2 starting with the replacement of the growth medium by an equivalent volume of KRB, pH 7.4 (500 μL apical, 1,500 μL basolateral) and cell incubation for 60 min. After this preincubation, 250 μL of KRB was removed from the insert, and the same volume of double-concentrated sample solution (Arginine HCl in KRB) was added to the 250 μL KRB inside the insert to reach the desired concentration. Afterwards, impedance measurements were performed for 180 min with a frequency range of 1 Hz to 100 kHz at 37° C. and 5% CO2 inside the incubator.
Subsequently, the cells were carefully washed with fresh KRB and incubated in medium, and TEER was monitored up to 24 h in 30 min time intervals after the start of the experiment to evaluate TEER recovery. The results (shown in FIG. 7) are given as the relative TEER reduction, defined as the percentage change of the starting value corrected by the baseline value.

For data set [2], the target named is desmopressin.
The target in data set [3] is desmopressin. The source holds these as a separate data set.
In data set [4] the target is T1, PTH(1-34) (Homo sapiens (Human)) (UniProt P01270).
T1 sequence (peptide): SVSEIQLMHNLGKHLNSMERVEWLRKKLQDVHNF

Data set [5] addresses T1, PTH(1-34) (Homo sapiens (Human)). The source holds these as a separate data set.
Data set [6] shares this target. This is another data set of the same source.

Where two headings read alike, the source gives them in different places.

`Cl.N=C(N)NCCC[C@H](N)C(=O)O` [arginine HCl, arginine hydrochloride]: the “permeation of semaglutide across human nasal cells” value in data set [1] is “improves the permeation of semaglutide”. Also, the cell viability entry in the data set on RPMI 2650 cells is “Only a minor decrease in cell viability”. The TEER entry in the data set on MDCK cells (180 min) was “strong decrease in TEER”. Also, in the data set with MDCK cells (up to 24 h), the “reversibility of tight junction opening (TEER recovery)” value was “fully reversible”.

Regarding chymotrypsin (enzyme), the Intact desmopressin after 5 hours incubation (%) with desmopressin [2] is 7%.

Compound pancreatin (pool or library) displayed a Peptide recovery with desmopressin [3] of 20%. Moreover, the % intact PTH(1-34) in [4] is 0%.

Compound pepsin (enzyme) showed an Intact PTH(1-34) in [5] of 0%.

As for trypsin (enzyme), in the data set with adalimumab, the % intact Adalimumab came out at 82%. In addition, in data set [6], the Intact PTH(1-34) was 0%.
